Reference: patent publication US20260217846A1 (University of Texas, published 2026)

Target: T1, recombinant human 4-1BB (human, UniProt Q07011 24-186, limits assumed)
T1 construct: The ELISA antigen is called only 'recombinant human 4-1BB'; also called CD137; TNFSFR
Experiment: ELISA titration on recombinant human 4-1BB

| binding result | Binder |
| --- | --- |
| binds | Clone 49A 4-1BB antibody (IgG1) (antibody, V domains shown, Mouse hybridoma antibody, IgG1) VH: VKLQQSGPELVKPGASVKISCKASGYTFTDYYMNWVKESHGKSLEWIGDINPNNGGSTYYNQKFKGKATLTVEKSSSTAFMELRSLTSEDSAVYYCARSLYGSTYYFDYWGQGTPLTVSS VL: DIVLTQSPASLAVSLGQRATISCKASQSVDYDGDSYMNWYQQKPGQPPKLLIYAASNLESGIPARFSGSGSGTDFTLNIHPVEEEDAGTYYCQQSNDDPWTFGGGTKLEIK |
| binds | Clone 54 4-1BB antibody (IgG2a) (antibody, V domains shown, Mouse hybridoma antibody, IgG2a; also called Curranlumab; hybridoma clone 271-54 41-BB) VH: EFQLQQSGPELVKPGASVKISCKASGYSFTDYNMNWVKQSNGKSLEWIGVINPNYGTTSYNQKFKGKATFTVDQSSSTAYMQLNSLTSEDSAVYYCARSPVEDYFDYWGQGTTLTVSS VL: ENVLTQSPAIMSASPGEKVTMTCRARSSVSSSYLHWYQQKSGASPKLWIYSTSNLASGVPARFSGSGSGTSYSLTISSVEAEDAATYYCQQYSGYPLITFGAGTKLELKR |
| binds | Clone 138 4-1BB antibody (IgG2b) (antibody, V domains shown, Mouse hybridoma antibody, IgG2b) VH: VQLQESGGGLVKPGGSLKLSCAASGFTFSDYGMHWVRQAPEKGLEWVAYISSGSNSIYYADTVTGRFTISRDNAKNTLFLQMTSLRSEDTAMYYCASNNGYFYFDYWGQGTTLTVSS VL: IVITQSPAILSASPGEKVTMTCRASSSVSYMHWYQQKPGSSPKPWIYATSNLASGVPARFSGSGSGTSYSLTVSRVEAEDAATYYCQQWSSDPFTFGSGTKLEIK |
